For orientation: Kd means the equilibrium constant for the complex coming apart. A lower Kd goes with a tighter complex. Usually koff stands for the first-order rate constant of dissociation. Lower therefore signals slow dissociation. One may read the kon as the second-order rate constant of association. A lower kon goes with slower complex formation.

These results are taken from PMC10652096 (The Journal of Biological Chemistry, 2023).

Test [1] deals with Hyper IL-12 (HIL-12) (human). In words: cell-based or functional assay.
Test [2] addresses human Hyper-IL-6 (HIL-6) (human). Put plainly: cell-based or functional assay.
In test [3] the target is T1, Hyper IL-12 (HIL-12) (human).
T1 construct: IL-12/IL-23 subunit p40, human; flexible linker; IL-12 subunit p35, human; also called hHIL-12; FLAG-tagged HIL-12
Put plainly: SPR; Fc fusion captured on a Protein A sensor chip, cytokine injected (HIL-6, HIL-12 50 to 0.1 nM, 30 μl/min, 120 s association, 300 s dissociation); 25 °C, PBS pH 7.4, 0.05% surfactant P20; 1:1 binding model; Biacore X100. The conditions noted are these: both partners purified. (In general: In SPR one partner is held on a chip, and binding of the other changes the refractive index at the surface.)

The target of test [4] is T2, human Hyper-IL-6 (HIL-6) (human).
T2 construct: soluble IL-6 receptor (sIL-6R), human; flexible peptide linker; Interleukin 6 (IL-6), human; also called hHIL-6; source: recombinant, produced and purified as described (27)
The description is as above. The settings on record: both partners purified.

B1: cs130-IL-12/23^VHHFc (Fc fusion)
chain: ELLDPCGYISPESPVVQLHSNFTAVCVLKEKCMDYFHVNANYIVWKTNHFTIPKEQYTIINRTASSVTFTDIASLNIQLTCNILTFGQLEQNVYGITIISGLPPEKPKNLSCIVNEGKKMRCEWDGGRETHLETNFTLKSEWATHKFADCKAKRDTPTSCTVDYSTVYFVNIEVWVEAENALGKVTSDHINFDPVYKVKPNPPHNLSVINSEELSSILKLTWTNPSIKSVIILKYNIQYRTKDASTWSQIPPEDTASTRSSFTVQDLKPFTEYVFRIRCMKEDGKGYWSDWSEEASGITYEDDVQFVESGGGSVHAGGSLRLNCATSGYIYSTYCMGWFRQAPGKEREGVAHIYTNSGRTYYADSVKGRFTISQDNAKNTVYLQMNSLKPEDTAIYYCAARPSIRCASFSATEYKDWGQGTQVTVSSRENLYFQMKYLLPTAAAGLLLLAAQPAMAEVQLVESGGGLVQAGGSLRLSCAASGRTFSWSAVGWFRQAPGKEREFVAAIRWSGGSPYYADSVKDRFTISRDNAKNTVYLQMNSLRPEDTAVYLCGETSLFPTSRGSHYDTWGQGTQVTVSSGSGWSHPQFEK
Regarding B1, the “IC50 of inhibition of proliferation of Ba/F3-hIL-12Rβ1-hIL-12Rβ2 cells induced by 10 ng/ml HIL-12, 72 h, CellTiter-Blue” value in test [1] was 7.81 nM. For the same molecule, in test [2], the “IC50 of inhibition of proliferation of Ba/F3-gp130 cells stimulated with 150 ng/ml IL-6 and 300 ng/ml sIL-6R (IL-6 trans-signaling via gp130; separate IL-6 and sIL-6R, not the fused HIL-6)” value came out at 0.56 nM. Also, in test [3], the Kd stood at 0.23 nM, the koff was determined as 0.000163 s⁻¹ and the association rate constant (kon) was determined as 710000 M⁻¹ s⁻¹. In test [4], this molecule yielded a Kd of 0.0289 nM, a koff of 7.02e-05 s⁻¹ and a kon of 2.43e+06 M⁻¹ s⁻¹.

B2: cs130-TNF^VHHFc (Fc fusion)
chain: ELLDPCGYISPESPVVQLHSNFTAVCVLKEKCMDYFHVNANYIVWKTNHFTIPKEQYTIINRTASSVTFTDIASLNIQLTCNILTFGQLEQNVYGITIISGLPPEKPKNLSCIVNEGKKMRCEWDGGRETHLETNFTLKSEWATHKFADCKAKRDTPTSCTVDYSTVYFVNIEVWVEAENALGKVTSDHINFDPVYKVKPNPPHNLSVINSEELSSILKLTWTNPSIKSVIILKYNIQYRTKDASTWSQIPPEDTASTRSSFTVQDLKPFTEYVFRIRCMKEDGKGYWSDWSEEASGITYEDDVQFVESGGGSVHAGGSLRLNCATSGYIYSTYCMGWFRQAPGKEREGVAHIYTNSGRTYYADSVKGRFTISQDNAKNTVYLQMNSLKPEDTAIYYCAARPSIRCASFSATEYKDWGQGTQVTVSSGGGGSGGGGSGGGGTG
Turning to B2, the “IC50 of inhibition of proliferation of Ba/F3-gp130 cells stimulated with 150 ng/ml IL-6 and 300 ng/ml sIL-6R (IL-6 trans-signaling via gp130; separate IL-6 and sIL-6R, not the fused HIL-6)” value in test [2] is 0.51 nM. In addition, in test [4], the Kd is 0.0488 nM, the koff is 8.55e-05 s⁻¹ and the kon was found to be 1.75e+06 M⁻¹ s⁻¹.
